Source: US20110129854A1

Experiments:
[1] = molecular target: human cardiac troponin-I-T-C complex (human) (UniProt P63316); experiment: sandwich chemiluminescent immunoassay (…); detection 7G7 conjugate 30 ng/mL, capture M8020207 microparticles; cTnITC standard, 279 pM cTnT
[2] = molecular target: Cardiac troponin-T (human) (UniProt P45379); experiment: sandwich chemiluminescent immunoassay (…); detection 7G7 conjugate, capture M8020207 microparticles; cTnT 2 ug/mL
[3] = molecular target: Cardiac troponin-T (human) (UniProt P45379); experiment: sandwich chemiluminescent immunoassay (…); detection 7G7 conjugate, capture 1C11 microparticles; cTnT 1 ug/mL
[4] = molecular target: Cardiac troponin-T (human) (UniProt P45379); experiment: sandwich chemiluminescent immunoassay (…); detection 7G7 conjugate, capture M8020207 microparticles; cTnT 0 ug/mL (blank)
[5] = molecular target: Cardiac troponin-T (human) (UniProt P45379); experiment: sandwich chemiluminescent immunoassay (…); detection 7G7 conjugate, capture 1C11 microparticles; cTnT 0.25 ug/mL
[6] = molecular target: human cardiac troponin-I-T-C complex (human) (UniProt P63316); experiment: sandwich chemiluminescent immunoassay (…); detection 7G7 conjugate, capture M8020207 microparticles; human plasma spiked with cTnITC, nominal 42 pM cTnT as labelled in the table
[7] = molecular target: Cardiac troponin-T (human) (UniProt P45379); experiment: sandwich chemiluminescent immunoassay (…); detection 7G7 conjugate, capture 1C11 microparticles; cTnT 2 ug/mL
[8] = molecular target: Cardiac troponin-T (human) (UniProt P45379); experiment: sandwich chemiluminescent immunoassay (…); detection 7G7 conjugate, capture M8020207 microparticles; cTnT 1 ug/mL
[9] = molecular target: Cardiac troponin-T (human) (UniProt P45379); experiment: sandwich chemiluminescent immunoassay (…); detection 7G7 conjugate, capture 7F4 microparticles; cTnT 1 ug/mL
[10] = molecular target: human cardiac troponin-I-T-C complex (human) (UniProt P63316); experiment: sandwich chemiluminescent immunoassay (…); detection 7G7 conjugate, capture M8020207 microparticles; negative human plasma without spiked cTnITC (blank)
[11] = molecular target: human cardiac troponin-I-T-C complex (human) (UniProt P63316); experiment: sandwich chemiluminescent immunoassay (…); detection 7G7 conjugate 30 ng/mL, capture M8020207 microparticles; cTnITC standard, 7 pM cTnT
[12] = molecular target: Cardiac troponin-T (human) (UniProt P45379); experiment: sandwich chemiluminescent immunoassay (…); detection 7G7 conjugate, capture 1C11 microparticles; cTnT 0 ug/mL (blank)
[13] = molecular target: Cardiac troponin-T (human) (UniProt P45379); experiment: sandwich chemiluminescent immunoassay (…); detection 7G7 conjugate, capture M8020207 microparticles; cTnT 0.5 ug/mL
[14] = molecular target: Cardiac troponin-T (human) (UniProt P45379); experiment: sandwich chemiluminescent immunoassay (…); detection 7G7 conjugate, capture 7F4 microparticles; cTnT 0.5 ug/mL
[15] = molecular target: Cardiac troponin-T (human) (UniProt P45379); experiment: sandwich chemiluminescent immunoassay (…); detection 7G7 conjugate, capture M8020207 microparticles; cTnT 0.25 ug/mL
[16] = molecular target: human cardiac troponin-I-T-C complex (human) (UniProt P63316); experiment: sandwich chemiluminescent immunoassay (…); detection 7G7 conjugate 30 ng/mL, capture M8020207 microparticles; cTnITC standard, 42 pM cTnT
[17] = molecular target: human cardiac troponin-I-T-C complex (human) (UniProt P63316); experiment: sandwich chemiluminescent immunoassay (…); detection 7G7 conjugate 30 ng/mL, capture M8020207 microparticles; cTnITC standard, 0 pM cTnT (blank)
[18] = molecular target: Cardiac troponin-T (human) (UniProt P45379); experiment: sandwich chemiluminescent immunoassay (…); detection 7G7 conjugate, capture 1C11 microparticles; cTnT 0.5 ug/mL
[19] = molecular target: Cardiac troponin-T (human) (UniProt P45379); experiment: sandwich chemiluminescent immunoassay (…); detection 7G7 conjugate, capture 7F4 microparticles; cTnT 0 ug/mL (blank)
[20] = molecular target: human cardiac troponin-I-T-C complex (human) (UniProt P63316); experiment: sandwich chemiluminescent immunoassay (…); detection 7G7 conjugate 30 ng/mL, capture M8020207 microparticles; cTnITC standard, 14 pM cTnT
[21] = molecular target: Cardiac troponin-T (human) (UniProt P45379); experiment: sandwich chemiluminescent immunoassay (…); detection 7G7 conjugate, capture 7F4 microparticles; cTnT 0.25 ug/mL
[22] = molecular target: Cardiac troponin-T (human) (UniProt P45379); experiment: sandwich chemiluminescent immunoassay (…); detection 7G7 conjugate, capture 7F4 microparticles; cTnT 2 ug/mL
[23] = molecular target: human cardiac troponin-I-T-C complex (human) (UniProt P63316); experiment: sandwich chemiluminescent immunoassay (…); detection 7G7 conjugate, capture M8020207 microparticles; human plasma spiked with cTnITC, nominal 7 pM cTnT

RLU [1]: 423000 RLU | RLU [2]: 305000 RLU | RLU [3]: 238000 RLU | RLU [4]: 338 RLU | RLU [5]: 79400 RLU | RLU [6]: 74100 RLU | RLU [7]: 311000 RLU | RLU [8]: 251000 RLU | RLU [9]: 29900 RLU | RLU [10]: 2070 RLU | RLU [11]: 15300 RLU | RLU [12]: 317 RLU | RLU [13]: 164000 RLU | RLU [14]: 17200 RLU | RLU [15]: 96200 RLU | RLU [16]: 81500 RLU | RLU [17]: 2370 RLU | RLU [18]: 149000 RLU | RLU [19]: 333 RLU | RLU [20]: 28100 RLU | RLU [21]: 9080 RLU | RLU [22]: 46800 RLU | RLU [23]: 13800 RLU
Substance: Murine anti-cardiac troponin-T 7G7 acridinium-9-carboxamide conjugate (antibody)
